Ends that are not written are not given here.
T1: OsRAP1B aa 30-180 (Oryza sativa, UniProt Q10CQ1 30-180)
T1 construct: bait, Gal4 DBD fusion; also called PN20232
T1 sequence: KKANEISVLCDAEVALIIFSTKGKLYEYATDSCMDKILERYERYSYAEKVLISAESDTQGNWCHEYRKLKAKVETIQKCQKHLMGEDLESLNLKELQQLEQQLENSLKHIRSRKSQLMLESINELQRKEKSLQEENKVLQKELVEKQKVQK

T2: OsPP2A-2 aa 150-308 (Oryza sativa, UniProt A2XN40 150-307)
T2 construct: bait, Gal4 DBD fusion; also called PN20254
T2 sequence: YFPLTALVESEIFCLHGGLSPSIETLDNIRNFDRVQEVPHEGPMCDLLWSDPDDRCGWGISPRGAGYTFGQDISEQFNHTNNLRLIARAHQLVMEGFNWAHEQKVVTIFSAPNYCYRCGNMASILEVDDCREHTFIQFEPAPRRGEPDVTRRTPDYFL

T3: OsCAA90866 aa 100-250 (Oryza sativa)
T3 construct: bait, Gal4 DBD fusion; also called PN20311; O. sativa Chilling-Inducible Protein CAA90866
T3 chain: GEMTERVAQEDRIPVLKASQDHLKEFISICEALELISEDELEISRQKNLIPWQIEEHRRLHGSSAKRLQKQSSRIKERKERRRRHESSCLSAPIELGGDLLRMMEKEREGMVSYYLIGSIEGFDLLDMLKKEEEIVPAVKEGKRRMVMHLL

T4: Os018989-4003 aa 90-220 (Oryza sativa)
T4 construct: bait, Gal4 DBD fusion; also called PN21044
T4 chain: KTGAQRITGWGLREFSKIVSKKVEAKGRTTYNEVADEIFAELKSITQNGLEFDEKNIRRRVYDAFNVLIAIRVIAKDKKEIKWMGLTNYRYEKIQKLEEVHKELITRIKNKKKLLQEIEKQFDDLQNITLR

T5: OsMADS5 aa 50-160 (Oryza sativa, UniProt A2Y9P0 50-160)
T5 construct: bait, Gal4 DBD fusion; also called PN20770
T5 sequence: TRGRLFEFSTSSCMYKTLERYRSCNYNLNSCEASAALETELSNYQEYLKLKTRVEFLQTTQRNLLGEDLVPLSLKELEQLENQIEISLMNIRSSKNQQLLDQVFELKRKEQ

T6: Os005750-3115 aa 50-150 (Oryza sativa, UniProt Q6IVC3 50-150)
T6 construct: bait, Gal4 DBD fusion; also called PN20466; O. sativa bZIP Transcription Factor
T6 sequence: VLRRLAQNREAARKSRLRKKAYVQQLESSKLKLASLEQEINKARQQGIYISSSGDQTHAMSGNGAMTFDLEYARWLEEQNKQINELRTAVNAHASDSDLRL

B1: OsMADS5 aa 121-225 (other)
chain: LSLKELEQLENQIEISLMNIRSSKNQQLLDQVFELKRKEQQLQDANKDLKRKIQETSGENMLHISCQDVGPSGHASEANQEFLHHAICDPSLHIGYQAYMDHLNQ
notes: prey, AD fusion; also called PN20770
B2: OsMADS8 aa 109-248 (other)
chain: RTQRNLLGEDLGTLGIKELEQLEKQLDSSLRHIRSTRTQHMLDQLTDLQRREQMLCEANKCLRRKLEESNQLHGQVWEHGATLLGYERQSPHAVQQVPPHGGNGFFHSLEAAAEPTLQIGFTPEQMNNSCVTAFMPTWLP
notes: prey, AD fusion; also called PN20778
B3: OsMADS8 aa 74-183 (other)
chain: SYGGPDTAIQNKENELVQSSRNEYLKLKARVENLQRTQRNLLGEDLGTLGIKELEQLEKQLDSSLRHIRSTRTQHMLDQLTDLQRREQMLCEANKCLRRKLEESNQLHGQ
notes: as for B2
B4: OsCAA33838 aa 5-155 (other)
chain: VFSRFSIYFCVLLLCHGSMAQLFNPSTNPWHSPRQGSFRECRFDRLQAFEPLRKVRSEAGVTEYFDEKNELFQCTGTFVIRRVIQPQGLLVPRYTNIPGVVYIIQGRGSMGLTFPGCPATYQQQFQQFSSQGQSQSQKFRDEHQKIHQFRQ
notes: prey, AD fusion; also called PN24775; O. sativa Glutelin CAA33838
B5: Os011994-D16 aa 99-368 (other)
chain: FGPSFGGGGSSRGRRQRRGEDVIHPLKVSLEDLYNGTSKKLSLSRNVLCAKCKGKGSKSGASMRCPGCQGSGMKITIRQLGPSMIQQMQQPCNECKGTGESINEKDRCPGCKGEKVIQEKKVLEVHVEKGMQHNQKITFPGEADEAPDTVTGDIVFVLQQKDHSKFKRKGDDLFYEHTLSLTEALCGFQFVLTHLDNRQLLIKSNPGEVVKPDQFKAINDEGMPMYQRPFMKGKLYIHFTVEFPDSLAPEQCKALEAVLPPKPASQLTEM
notes: prey, AD fusion; also called PN20618; Hypothetical Protein 011994-D16, Similar to Z. mays DnaJ protein
B6: OsPN24162 aa 28-164 (other)
chain: QKLTVSTVSSSGVGLTSTAVKKGGLYTLDVSSVYKYKSTLVDVKVDTESNISTTLTVFDVLPSTKLVTSVKLPDYNSGKVEMQYFHENASFATAVGMKPSPVVEFSGTAGAQGLAFGAEAGFDTATGKFTKYSAAIG
notes: prey, AD fusion; also called Novel Protein PN24162, Porin-like, Voltage-Dependent Anion Channel Protein
B7: OsORF020300-2233.2 aa 1-190 (other)
chain: MVEVEEVSNKMQAQMRLHPAAAAEEEDADLPLPALFDKASHLHSLASSSSLDQEGIRKGVDLLRRCDEMVSKLGLFSSNETKDDVSTANLKYLLVPYYLGEMTERVAQEDRIPVLKASQDHLKEFISICEALELISEDELELSRQKQPDTMANRRAQKAARFKRQKAAETKLLEIKERKERRRRSLRAAA
notes: prey, AD fusion; also called PN21639
B8: OsPN29883 aa 58-175 (other)
chain: YGQLKAAQPFFLLAGPNVIESEEHVLKMAKHIKGITTKLGLPLVFKSSFDKANRTSSKSFRGPGLEEGLKILEKVKATYDIPVVTDVHESHQCEAAGRVADIIQIPAFFCRQTDLLVA
notes: prey, AD fusion; also called Novel Protein PN29883, Fragment
B9: OsORF020300-2233.2 aa 1-206 (other)
chain: MVEVEEVSNKMQAQMRLHPAAAAEEEDADLPLPALFDKASHLHSLASSSSLDQEGIRKGVDLLRRCDEMVSKLGLFSSNETKDDVSTANLKYLLVPYYLGEMTERVAQEDRIPVLKASQDHLKEFISICEALELISEDELELSRQKQPDTMANRRAQKAARFKRQKAAETKLLEIKERKERRRRSLRAAALSAPIEAGEEDAFEDD
notes: as for B7
B10: OsPN22824 aa 393-494 (other)
chain: ASLVEQDLKERAAREARMGEQLRASEAARETLEAEMRRLRVQTEQWRKAAEAAPPVIGGDAHFVGHNGNGWGSPATMPDDCDDEGFGGKRKGAGIRMLGDLW
notes: prey, AD fusion; also called Novel Protein PN22824, Myosin heavy chain
B11: OsAAK72891 aa 339-651 (other)
chain: ELDLQEKTEELFKFKREKGLLTLKNDVEFEPLRKKIPQIISRMDQIISKNIKMPSLCMTNDGLDERCISAKRIDSLYYENQHLRGLLADNMKDVKELSSQLSEASKEMSIQLSSEDDLLRQIAKIKEEYEDLQIEAGVRDGVYQTITRKLLDDSMNSMHDAATNFSTELSSLEAMISEKEKALCLSNEENRMLKEKIAELEQCLIQDKQEDPEVIKQESTEIILRDIEVAPHISPRRSHETPKQDMQYDELVKLNSSLEIASAALKEVENKNIDYNGIFTKNEQEKQLECILISIMKLSKEFVEIEQKLSVER
notes: prey, AD fusion; also called PN26317
B12: OsE2F1 aa 191-436 (other)
chain: LQAEVENLSLKEQALDERISDMREKLRGLTEDENNQRWLYVTEDDIKGLPCFQNETLIAIKAPHGTTLEVPDPDEAGDYLQRRYRIVLRSTMGPIDVYLVSQFDEKFEDLGGGATPSGHANVPKHQPTEVFNTTNAGVGQCSNSVAVDNNIQHSQTIPQDPSASHDFGGMTRIIPSDIDTDADYWLISEGDVSITDMWKTAPDVQWDESLDTDVFLSEDVRTPSSHNQQPSAVGGPQMQVSDMHKP
notes: prey, AD fusion; also called PN19758
B13: OsMADS13 aa 69-230 (other)
chain: RYKKAHACGSTSGAPLIEVNAQQYYQQESAKLRHQIQMLQNTNKHLVGDNVSNLSLKELKQLESRLEKGIAKIRARKNELLASEINYMAKREIELQNDNMDLRTKIAEEEQQLQQVTVARSAAMELQAAAAAQQQQQNPFAVAAAQLDMKCFFPLNLFEAAA
notes: prey, AD fusion; also called PN20668
B14: Os000564-1102 aa 72-172 (other)
chain: SIEQKEESRGNEDRVTLIKDYRGKIETELTKICDGILKLLESHLVPSSTAPESKVFYLKMKGDYYRYLAEFKTGAERKDAAENTMVAYKAAQDIALAELPP
notes: prey, AD fusion; also called PN20072; Hypothetical protein 000564-1102
B15: OsBAB56078 aa 51-155 (other)
chain: PGRFVRKCEKTEQLLRDCVGSDIEALEKGLFGSIGSFLDDAERMTNDFLKSFGVPSINERESSSFDGQPTGRHIGGQPAGRHIEEGTAKDTKQNDYAEFSSKITD
notes: prey, AD fusion; also called PN28517; O. sativa Hypothetical protein BAB56078
B16: OsAAG13633 aa 528-789 (other)
chain: LREQLRMQYECSAHLSIISDLEANVESLENELQEQSKRLEADIQEVMRAKVEQEQRAIKAEESLRKARWNNATTAERLQEEFKMLSSQVSSAFSANEQLLMQARKEAAELQLQKGQLEELLQKAQEDLGSIQEQHRVKVQQLLTLVDFKSKETDRLVMELKSKSDEFQNQKRCNEAKLSVLSEEIDQLKAKIENLSNERDNLFEENEQKDKELAANCQKDMFLQDRDAEIALLNKELASIKDQVQTYLEEINTLKSSKNEKE
notes: prey, AD fusion; also called PN25701
B17: OsAAG13633 aa 538-738 (other)
chain: CSAHLSIISDLEANVESLENELQEQSKRLEADIQEVMRAKVEQEQRAIKAEESLRKARWNNATTAERLQEEFKMLSSQVSSAFSANEQLLMQARKEAAELQLQKGQLEELLQKAQEDLGSIQEQHRVKVQQLLTLVDFKSKETDRLVMELKSKSDEFQNQKRCNEAKLSVLSEEIDQLKAKIENLSNERDNLFEENEQKDK
notes: as for B16
B18: OsAAG13633 aa 612-738 (other)
chain: LSSQVSSAFSANEQLLMQARKEAAELQLQKGQLEELLQKAQEDLGSIQEQHRVKVQQLLTLVDFKSKETDRLVMELKSKSDEFQNQKRCNEAKLSVLSEEIDQLKAKIENLSNERDNLFEENEQKDK
notes: as for B16
B19: OsPN23045 aa 240-287 (other)
chain: ILSKLVQAKELLKEYVEREKKKREERSETPKSNEAVTKFDGSLNSMRH
modifications: not fully specified
notes: prey, AD fusion; also called Novel Protein PN23045
B20: OsPN23225 aa 639-792 (other)
chain: FGIRILDEAQQCIEELQCPEYYSEIVKEAINLALDKGPNFIDPLVRLLEHLHTKKIFKTEDLKTGCLLYAALLEDIGIDLPLAPALFGEVVARLSLSCSLSFEVVEEILKAVEDTYFRKGIFDAVMKTMGGNSSGQAILSSHAVVIDACNKLLK
notes: prey, AD fusion; also called Novel Protein PN23225, Similar to Tritticum aestivum Initiation Factor (iso)4f p82 Subunit
B21: OsAAG46136 aa 92-222 (other)
chain: FGVNSGTTRFALENQAINEATFRCPDELGWKPQRAPIVSSDGSISNLRKTTVPVNEVNKSLQQMGFDVAPSDDAGRFVCNYVYYQSLRFAEQRGIKSLFVHFPLFTTISEEVQMNFVATLLEVLASQNYAQ
notes: prey, AD fusion; also called PN23186; O. sativa Putative Pyrrolidone Carboxyl Peptidase

molecular target: T1, OsRAP1B aa 30-180; test: Y2H; output trait library
Procedure, shortened: (§1)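 Myriad Genetics Inc. (Salt Lake City, Utah) supplied the automated, high-throughput yeast two-hybrid assay used to detect protein-protein interactions. A bait clone encoding a defined amino-acid fragment of a rice protein was screened against a rice prey library, either the input trait or the output trait library. To identify the interacting proteins, prey clones were retrieved and their encoding sequences were compared against databases by BLAST.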

binding result	Binder
binds	B1
binds	B2
binds	B3

molecular target: T2, OsPP2A-2 aa 150-308; test: Y2H; output trait library

binding result	Binder
binds	B4
binds	B5
binds	B6

Molecular target: T3, OsCAA90866 aa 100-250
Test: Y2H; output trait library

binding result	Binder
binds	B7
binds	B8
binds	B9

Molecular target: T4, Os018989-4003 aa 90-220
Test: Y2H; output trait library
Procedure, shortened: as §1

binding result	Binder
binds	B10
binds	B11
binds	B12

molecular target: T5, OsMADS5 aa 50-160; test: Y2H; output trait library
Procedure, shortened: as §1

binding result	Binder
binds	B13
binds	B14
binds	B15

molecular target: T6, Os005750-3115 aa 50-150; test: Y2H; output trait library
Procedure, shortened: as §1

binding result	Binder
binds	B16
binds	B17
binds	B18

Molecular target: T3, OsCAA90866 aa 100-250
Test: Y2H; input trait library
Procedure, shortened: as §1

binding result	Binder
binds	B19
binds	B20
binds	B21
